Molecular target: CH848.d0949.10.17 DT (HIV-1)
Assay: not stated (FIG. 4)

With DH270 UCA Fab the Kd was 60 nM.
